Measured values as given in article PMC7757244.

target: Mut FcγRIIIa (human) (UniProt P08637); assay: SPR
UniProt P08637, sequence (P08637 17-254): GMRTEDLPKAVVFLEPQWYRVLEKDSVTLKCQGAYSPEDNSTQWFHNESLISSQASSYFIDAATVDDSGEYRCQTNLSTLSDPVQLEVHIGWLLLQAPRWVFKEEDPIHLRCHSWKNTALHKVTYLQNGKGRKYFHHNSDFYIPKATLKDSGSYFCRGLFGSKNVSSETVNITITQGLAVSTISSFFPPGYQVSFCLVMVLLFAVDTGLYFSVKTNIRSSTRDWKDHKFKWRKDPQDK

| Substance | Kd | koff | kon |
| --- | --- | --- | --- |
| ExpiCHO-Trastuzumab (antibody) | 2.52 µM | 0.0893 s⁻¹ | 36200 M⁻¹ s⁻¹ |
| ExpiCHO-Rituximab (antibody) | 2.03 µM | 0.0803 s⁻¹ | 39900 M⁻¹ s⁻¹ |
| Expi293-Trastuzumab (antibody) | 1.95 µM | 0.0583 s⁻¹ |  |
| Expi293-Rituximab (antibody) | 1.38 µM | 0.0544 s⁻¹ | 39600 M⁻¹ s⁻¹ |
